Results from patent US6689362B1, “Method for treating T-lineage leukemias and lymphomas using a CD7-specific monoclonal antibody (TXU-7) linked to the pokeweed antiviral protein (PAP)” (priority 1997, dated 2004).
Several values for one entry are separate records, joined by “and”; a condition that tells them apart may be missing. Equal values may be shown once. Read-outs that look alike come from different tables or passages of the source.

Experiments:
[1] = system: ribosomes (nuclease-treated rabbit reticulocyte lysate); assay: Cell-free protein synthesis inhibition assay (rabbit reticulocyte cell-free translation); format: biochemical
Method: The ribosome-inhibiting activity of PAP was analyzed in a cell-free translation system obtained in kit form from Promega Biotec, Inc. (Madison, Wis.) and based on a method developed by Pelham and Jackson. Pelham et al., Eur. J. Biochem., 67, 247 (1976). This system consists of the following: nuclease-treated rabbit reticulocyte lysate (35 μL), 1 mM animo acid mixture minus leucine (1 μl), [^3H] leucine (183 Ci/mmol, 1 mCi/mL, Amersham Corp., Arlington Hts, Ill.), 5 μl of brome mosaic virus RNA (2 μL of 0.5 μg/μL stock), and water or buffer to bring the final volume to 50 μL per assay tube. Samples are diluted in PBS and 2.5-5 μL amounts were added to the lysate. Control samples minus toxin were set up in triplicate. At 0 hr (immediately after adding [^3H]-leucine and RNA and mixing gently to start the reaction), 10 μL aliquots were removed from the control and mixed with 1 mL 1 N NaOH to stop the reaction. The control toxin-treated samples were incubated an additional 60 minutes at 37° C., at which time 10 μL samples were again removed to NaOH, mixed, and 50 μL of 30% H2O2 added to decolorize the samples.
Following 10 minutes incubation at 37° C., the tubes were transferred to an ice bath and 2 mL of cold 4% casamino acids followed by 2 mL of cold 50% trichioroacetic acid (TCA) were added to precipitate the synthesized protein. After 30 minutes on ice, the samples were filtered through GF/F glass microfiber filters (Whatman, Hillsboro, Oreg.). The extent of protein synthesis inactivation is determined as percent control response=100 ×([^3H]-leucine incorporation [mean cpm at t60′−mean cpm at t0] for the toxin-treated samples)/([^3H]-leucine incorporation [mean cpm at t60′−mean cpm at t0] for the untreated control).

BALB/c mice = assay: Acute toxicity of PAP, single i.v. injection; format: in vivo
Method: Female BALB/c mice weighing approximately 20 grams were given a single intravenous injection of purified PAP (Lot #P-1993) via the tail vein. Eight different doses were used ranging from 10 μg to 175 μg and each dose was tested in 5 mice. Mice were monitored for 30 days for morbidity and mortality. […] This non-toxic dose is >90-fold higher than the highest PAP dose that will be given to patients as a TXU-7 antibody conjugate. Deaths were observed only in the groups receiving 150 μg/20 g mouse (=7.5 mg/kg) or higher doses.

B1: PAP: 29 kDa ribosome-inactivating protein from spring leaves of pokeweed (Phytolacca americana) (protein)
chain: VNTIIYNVGSTTISKYATFLNDLRNEAKDPSLKCYGIPMLPNTNTNPKYVLVELQGSNKKTITLMLRRNNLYVMGYSDPFETNKCRYHIFNDISGTERQDVETTLCPNANSRVSKNINFDSRYPTLESKAGVKSRSQVQLGIQILDSNIGKISGVMSFTEKTEAEFLLVAIQMVSEAARFKYIENQVKTNFNRAFNPNPKVLNLQETWGKISTAIHDAKNGVLPKPLELVDASGAKWIVLRVDEIKPDVALLNYVGGSCQTTY
In the case of B1, the “IC (mean SE) value, ribosome inhibitory activity (first IC value)” value ([1]; purified PAP batches (n=6)) is reported as 0.34 ± 0.06 ng/mL, the “IC value, ribosome inhibitory activity (second IC value)” value ([1]; purified PAP batches (n=6)) is reported as 3.7±1.1 ng/mL and 130.37 pM and the IC50 ([1]; purified PAP batches (n=6), read-out: IC value, ribosome inhibitory activity (first IC value)) is reported as 12.2 pM. The “range of first IC value” ([1]; range over PAP batches (n=6)) was 0.17 to 0.58 ng/mL, the “range of second IC value” ([1]; range over PAP batches (n=6)) was 0.63-7.5 ng/mL and 22-263 pM and the IC50 ([1]; range over PAP batches (n=6), read-out: range of first IC value) was 6 to 20 pM. The “non-toxic dose relative to highest PAP dose to be given to patients as conjugate” value (BALB/c mice; 100 μg/20 g mouse dose) was over 90 fold, the “lethal dose relative to highest PAP dose to be given to patients as TXU-7-PAP” value (BALB/c mice; 150 μg/20 g mouse dose) was over 60 fold and the “Acute Toxicity in Mice LD50 (i.v.)” value (BALB/c mice; i.v.) was “LD50 (i.v.) 150 mg/mouse”.
